Source: the supplement of paper PMC10724198
± gives the standard deviation of the averaged measurements.

Test system: Saccharomyces cerevisiae
Assay: protein stability index of tFT-peptide fusion (C-terminal peptide) (PSI (0-1 scale)); higher = more stable (slower turnover)
Conditions: temperature: 30 C
Description: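 MPS profiling in S. cerevisiae of the yeast C-terminome library: the last 12 aa of each annotated ORF are fused to the C-terminus of a sfGFP-mCherry timer, after a GGGS linker. Cells are FACS-sorted into 8 mCherry/sfGFP bins and deep-sequenced. PSI runs from 0 (unstable) to 1 (stable); wild type and das1Δ backgrounds, two technical replicates each.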

[1] = genetic background: das1 deletion

Sequence	protein stability index [1]	protein stability index (genetic background: wild type)
KEALLTRLEHMI [SWC7 C-terminal 12 aa]	0.682 ± 0.015	0.624 ± 0.011
KEEEGSFNNVIG [PRE2 C-terminal 12 aa]	0.702 ± 0.012	0.66 ± 0.014
KEFQNSDIADLY [SGV1 C-terminal 12 aa]	0.714 ± 0.01	0.686 ± 0.017
KFFLTISADVSF [YNL057W C-terminal 12 aa]	0.6369 ± 0.0022	0.647 ± 0.03
KFRKDEDKSVKQ [TAN1 C-terminal 12 aa]	0.68521 ± 0.00053	0.702 ± 0.056
KGDNITLITSAD [SME1 C-terminal 12 aa]	0.688 ± 0.0079	0.685 ± 0.099
KHKNYLSFNFTK [YLL065W C-terminal 12 aa]	0.698 ± 0.038	0.69 ± 0.012
KHKSSSYANRDS [DUS3 C-terminal 12 aa]	0.6941 ± 0.00079	0.693 ± 0.026
KINKNGLLENIL [IES3 C-terminal 12 aa]	0.702 ± 0.019	0.7227 ± 0.0051
KISFKWKKQRKR [UTP11 C-terminal 12 aa]	0.71 ± 0.01	0.655 ± 0.015
KIYMANAPPPPV [VPS54 C-terminal 12 aa]	0.706 ± 0.013	0.668 ± 0.02
KKFIYQQLDMFS [YOL024W C-terminal 12 aa]	0.7181 ± 0.0053	0.7 ± 0.024
KKGLTRSVKFKN [SAS10 C-terminal 12 aa]	0.708 ± 0.044	0.667 ± 0.017
KKHDWSDISQLW [OSH3 C-terminal 12 aa]	0.7283 ± 0.0011	0.728 ± 0.016
KKKSQNKSRKDD [PBR1 C-terminal 12 aa]	0.7005 ± 0.0067	0.691 ± 0.069
KKLAKSGIEFKW [NOP15 C-terminal 12 aa]	0.704 ± 0.018	0.684 ± 0.063
KKTAIDKLITLL [AIM18 C-terminal 12 aa]	0.681 ± 0.019	0.342 ± 0.017
KLKRAKRKGISE [IMP21 C-terminal 12 aa]	0.693 ± 0.013	0.692 ± 0.012
KLRAKRLAKGGR [RPG1 C-terminal 12 aa]	0.696 ± 0.012	0.705 ± 0.011
KNFRNQYSLHPP [YHR095W C-terminal 12 aa]	0.7047 ± 0.0045	0.6752 ± 0.0034
KNRRGNRSGYRR [THO1 C-terminal 12 aa]	0.703 ± 0.0025	0.689 ± 0.024

Sequence	protein stability index [1]	protein stability index (genetic background: wild type)
KPIETVFDEETV [YIP3 C-terminal 12 aa]	0.697 ± 0.018	0.72 ± 0.041
KQGPKNLKKTKK [TAF13 C-terminal 12 aa]	0.704 ± 0.0098	0.679 ± 0.0097
KQQSWLRRVIGY [ENB1 C-terminal 12 aa]	0.696 ± 0.015	0.688 ± 0.038
KQSKKKTSFTRF [YBL028C C-terminal 12 aa]	0.699 ± 0.036	0.66155 ± 0.00019
KRHLTPAVELDY [PRP40 C-terminal 12 aa]	0.671 ± 0.008	0.6566 ± 0.001
KRKFLGEHRKTL [TOK1 C-terminal 12 aa]	0.713 ± 0.01	0.67338 ± 0.00061
KRLIGIAEATLN [SEC31 C-terminal 12 aa]	0.666 ± 0.032	0.667 ± 0.014
KRNFCPFHDAVF [PIB1 C-terminal 12 aa]	0.712 ± 0.01	0.716 ± 0.043
KRQGRTLYGFGG [YBR009C; YNL030W C-terminal 12 aa]	0.7013 ± 0.0062	0.693 ± 0.021
KSGPEWIAENRD [TUM1 C-terminal 12 aa]	0.716 ± 0.023	0.7166 ± 0.0051
KSLWDYVKKNTE [TAF14 C-terminal 12 aa]	0.689 ± 0.046	0.712 ± 0.019
KSTNCCLIYDST [KKQ8 C-terminal 12 aa]	0.7052 ± 0.00093	0.675 ± 0.036
KSVVVRSKEKQS [GAA1 C-terminal 12 aa]	0.7002 ± 0.0014	0.441 ± 0.014
KTETLSVPRILT [YBR090C C-terminal 12 aa]	0.689 ± 0.01	0.722 ± 0.059
KTIDNLKALMKN [PFD1 C-terminal 12 aa]	0.696 ± 0.0081	0.721 ± 0.019
KTLWSRFIEHFV [MIM2 C-terminal 12 aa]	0.746 ± 0.022	0.671 ± 0.023
KTVGKLVLEIPQ [ZTA1 C-terminal 12 aa]	0.689 ± 0.033	0.701 ± 0.051
KTVIENPLEMLL [LAT1 C-terminal 12 aa]	0.6972 ± 0.002	0.694 ± 0.025
KVEFSKSETKTL [MSL1 C-terminal 12 aa]	0.71 ± 0.018	0.6736 ± 0.0014
KVHQGKYNGPGL [AI2 C-terminal 12 aa]	0.69085 ± 0.00022	0.727 ± 0.037
